Test results taken from the RNAGym collection of RNA variant scans (doi:10.1073/pnas.2313332121).
This sample holds only a part of the variants without activity.

B1: TPR 5TU (parent)
chain: GGAUCUUCUCGAUCUAACAAAAAAGACAAAUCUGCCACAAAGCUUGAGAGCAUCUUCGGAUGCAGAGGCGGCAGCCUUCGGUGGCGCGAUAGCGCCAACGUUCUCAACUAUGACACGCAAAACGCGUGCUCCGUUGAAUGGAGUUUAUCAUG

Variants of: B1
Assay: polymerase ribozyme fitness, log enrichment relative to wild type (log ratio); higher = more active; in vitro selection for triplet polymerase activity
In short: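 To select mutant libraries of each subunit of a heterodimeric triplet polymerase ribozyme, built by PCR and transcribed, each was annealed with a biotinylated primer, partner subunit and triplets, then incubated frozen at −7 °C. Extended constructs were gel-excised, captured on streptavidin beads and amplified by RT-PCR, in one round carried out in triplicate. Illumina sequencing of input and output libraries kept genotypes with ≥10 input reads and ≥1 read per output. Fitness is the base-2 logarithm of genotype enrichment relative to wild-type enrichment, from inverse-variance-weighted replicate averages.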

Variant | polymerase ribozyme fitness (log ratio)
C5A A47G C79A G83U G140A U146G | ≤ -4.2
C5A U45G C85G | -2.33
C5A U6A G94U C123U U148G | ≤ -4.2
C5A U13A A24G U82C G100C | ≤ -4.2
C5A A16U U53A C57G U90G C95A | ≤ -4.2
U4G A20C C85U | -0.147
C5G U9A C54U U146C | -2.79
C5G A17G C38A A47C A60C U82C C95G C123U G143A A147G | ≤ -4.2
U4G G84A U109A A115C C123A | -2.01
C5G A29C A47C G50A G86A U90A A91U G143C | ≤ -4.2
U4G U13G A30C U31A G50U C95U C103A C105U | ≤ -4.2
C5A C38U G59A C87G C103A A121U G126A U146C | ≤ -4.2
C5G A41U G59C G84A | -2.99
C5A C87U C129A | -3.51
C5A U9G C93G C103A C108G A113G A137G | ≤ -4.2
C5A G92A U104G A120U C123A U130G | ≤ -4.2
C5A C79A G88A A106C | ≤ -4.2
C5A G136A | 0.816
C5A G141U | 0.735
C5G A17G A20U C57U A66U G86C A107G C108A | ≤ -4.2
C5G U13A A29G C51U G94C C114G G140C G141C U144A | ≤ -4.2
C5A A60G | 0.956
C5G C14G A41C G48C G126A G140A | ≤ -4.2
U4G A40C A49G C96A | -3.02

Variant | polymerase ribozyme fitness (log ratio)
U4G G48A G88C C123U U134G A137C | ≤ -4.2
C5G A23C C72U G88U C132G U135G U148G | -3.99
C5A A17U G42A G83C U102A A119U G126U G141U | ≤ -4.2
C5A G86U A107G G152A | ≤ -4.2
C5G C103A G117A | -2.88
C5A U13G G81U G92C U145G | -2.12
C5A C8G A21U C54G C57U G58A C69A G81A A115U G133C G143U | ≤ -4.2
U4G C14U A52U C63U C85U | -4.13
C5A A12U | 0.264
U4G A19C C36A A119C G133A | ≤ -4.2
C5A G81U C85G C99U U134A | -4.04
C5G A16G C35U C63A C85U | -1.82
C5G U7A U56A A91C A106G C125A G136A U145A | ≤ -4.2
C5G C35U G50A U55A C57A A66C C87A U134C | ≤ -4.2
C5G A37C G81A | -1.37
C5G A21U A49G C93A A137U | ≤ -4.2
U4G A21U C32G C38G C93G U146A | ≤ -4.2
C5A C18G A40U | -0.118
U4G G84A C87U A106C G141A U144G | ≤ -4.2
U4G G11U A20U A28U U56A C85U C99U U151A | ≤ -4.2
U4G C27U A97U | -2.22
U4G A19G A23G G59U A66U G141C | ≤ -4.2
C5A U13G C27A G34A G42C C96A | ≤ -4.2
C5G C10U C76A C87U G92A | -2.35

Variant | polymerase ribozyme fitness (log ratio)
U4G C87A | ≤ -4.2
C5A C87U | -0.502
C5G U45G G86U C93G A97G | -3.16
C5A C76U | -0.144
U4G A39U A40U A91U C95G | ≤ -4.2
U4G C69G C96U A142C | -3.64
C5G A49U C57U C93G C103G U144C | ≤ -4.2
C5A C85U G86C A119C A120C | -3.07
C5G G83U A98U C105U | -1.03
U4G U7G A20U C57U A91U C123U A150U | -3
C5G C38A A39C A60U A73G G94U U104A A138U | ≤ -4.2
C5A A19U G86C A147C | -3.38
C5G C35U A52C G59C A106G C108A C114U A119U A122U G133U | ≤ -4.2
C5G G59U C99U A119G | -1.53
U4G C35U G83C G124U U146C | -2.43
C5A A110C | ≤ -4.2
C5G A12C A40U G58C G83U C118G | -3.96
C5A A20U A21U A107G U145C C149U | ≤ -4.2
U4G C54G A64U C95U U134G | ≤ -4.2
U4G C114U | -2.01
C5A A47U C76G G94C U101G | -4.01
C5A A17U G83U C87G | ≤ -4.2
C5A G67C C103A G141U A150C | ≤ -4.2
C5G G25C A28C C57G G58A C76G G143U | ≤ -4.2

Variant | polymerase ribozyme fitness (log ratio)
C5G U82G G86U A121G | -2.13
C5G C10G A28U U33G C79U | ≤ -4.2
U4G C93U | -0.624
C5G C69G C93U | -4.12
C5G A52G G83C C93U | -3.55
C5G U15G A52G | -1.06
C5A C38U G50A A60G C95A C103U G126U | -3.13
C5G C132U U146G | -3.69
C5A C51U | -0.595
C5A A37U C51U U56A C79A C96G C116G G133C | ≤ -4.2
U4G A40G C72G C87U U104G C118U A122G | ≤ -4.2
C5G U31A C54U G67C A110U A121G | ≤ -4.2
C5G A73U G124A | -1.49
C5A C96U | 0.321
C5G U7A U33G A91G C93U C118G A122G U144G | ≤ -4.2
C5A A21G G88C | -4.09
C5G A28G G48C G83C U104G G133U | ≤ -4.2
U4G A21G A52G G141A | -2.63
U4C U53A U55A G81C A150U | -1.4
U4G G88U | -3.2
C5G U55G G83U U101C | -2.49
C5G A28C A73G | ≤ -4.2
C5G C57U | -0.358
U4G A37C C87U A122G C125A | -3.07

Variant | polymerase ribozyme fitness (log ratio)
C5G C32U C96U A122G | -3.38
C5G G46A G92C | -4.13
U4G A23G C32U G62C G94C G126A G143U | -4.05
C5G U56A G94C A120G | -1.95
U4C U144G | 0.832
U4G C8U U56A G84A | -1.05
C5G U33C G50C C57U G71A A73U A91U | ≤ -4.2
C5G U53A | -1.8
C5A A40C G50U C57U G81C C95A U104G C116G G133A | ≤ -4.2
C5G A40C G71A C85A A142C A150C | ≤ -4.2
C5G G46A G88A C95G U102G U135C A147C | ≤ -4.2
U4G U13A C57A A106C G136A | -1.91
C5A C76A C85G G133C | -2.61
U4G A23C C79A G92C G100A | ≤ -4.2
U4G U55G | -0.607
U4G C8A U31A U55A C87U U101C G133C | ≤ -4.2
C5G G50C | -3.2
C5A A40G C87U | -2.81
U4G A47U G58C C93G | -4
C5G U82A C95U | -0.788
C5G U45G U55G G86U C87A A91U | ≤ -4.2
U4G U56G C85A G141C | -2.61
U4G G48U G84A C93A G133A G141C | ≤ -4.2
C5G U6G U7G C14G A28C A30C G50C C51G A89G C93G G94U C105U C118A G133A | ≤ -4.2

Variant | polymerase ribozyme fitness (log ratio)
C5G U53A G94A C125A U139C A142C | ≤ -4.2
C5G A24G A26G A113G C116G | ≤ -4.2
C5G G48C G62C A97U G141U | ≤ -4.2
C5G G92A C96A | -3.11
U4G G11U A40U U55A A98U | -3.1
C5G A37U G141U | -1.94
C5A U7G G88U C105G G136A A137U G152U | ≤ -4.2
C5A A12G A23C G84A | -4.02
C5G A19G A29C A39C U145C | ≤ -4.2
C5G C36U C96G | -2.51
U4G G74A G84U U109A | ≤ -4.2
C5G A20G C27A C72U A120U | ≤ -4.2
C5G U6G C38U A41U A47U G86A A91C | ≤ -4.2
U4G C38U G58A C95U C96U U127C | -3.54
U4C U33A A40U U82G C96G C108U C118U U139C U148A | ≤ -4.2
C5A C85U C93U | -1.66
C5G U6C G50A | -2.74
C5A G48C | -0.334
U4G A24G U44A U56G G94A A138C | ≤ -4.2
U4G U33C G84U A120U U130C C132U | ≤ -4.2
C5G A39U G59U G68A A98G A115G A137G G143U | ≤ -4.2
C5A C57G C72U A73U G80C C93G A110U | ≤ -4.2
C5G G65A A66G A137C G141C | ≤ -4.2
U4G C5A U55G | -0.269

Variant | polymerase ribozyme fitness (log ratio)
C5A A37U | -0.964
C5G G84A | -0.0388
C5G C8U A24G G34A A41G G70C A107G G124U U151G | ≤ -4.2
C5G C38U G50A | -1.8
C5G U55G C85U C99A | -2.86
U4G U53A C85U G133C | -2.45
C5G U6A C32G U77A C87G C114U | ≤ -4.2
C5A A21U G50A C85A C96A C118G G133C C149U | ≤ -4.2
C5G A39C C87A G126A G136C | ≤ -4.2
C5A U148G | -3.62
U4G A22U A37C C95A C96A U127G | ≤ -4.2
U4G U9A C35A G48C U134G | ≤ -4.2
C5G A20C G48C U56A G62A | -4.11
C5G G34A U134A | -3.83
U4G A28G A91G C93U A115U G133A | ≤ -4.2
C5A A20G C85U C93U A97U | -3.46
C5A G62C G67C G94A A106U | ≤ -4.2
C5G G46U G81U C87U G88A A98U C125U | ≤ -4.2
C5G C8U A28C U33A U44A C85U U90A U139C | ≤ -4.2
U4G C10A C35U G83U G88C A120C G143A | -4.17
C5A A41G G58A A60C G84A A106U C131U U146A | -3.76
C5A C85U | -0.371
C5A U45G C85U A115U G141U | -3.86
